Measurements from patent US20170044240A1.

Molecular target: HIV envelope protein on HIV-infected cells (HIV)
Experiment: cell-based or functional assay

Q: How did the HIV-infected cells killed at 48 hours, against CARCD19 T-cells turn out when “anti-HIV chimeric antigen receptor comprising scFv derived from PGT128 (PGT128 CAR)” was run?
A: The HIV-infected cells killed at 48 hours, against CARCD19 T-cells was 56%.
